# B1: Luc90-1B5: mutant luciferase, SEQ ID NO:24 (protein)
# chain: MADKNILYGPEPFYPLEDGTAGEQMFDALSRYADIPGCIALTNAHTKENVLYEEFLKLSCRLAESFKKYGLKQNDTIAVCSENGLQFFLPVIASLYLGIIVAPVNDKYIERELIHSLGIVKPRIVFCSKNTFQKVLNVKSKLKSIETIIILDLNEDLGGYQCLNNFISQNSDSNLDVKKFKPYSFNRDDQVALIMFSSGTTGLPKGVMLTHKNIVARFSLAKDPTFGNAINPTTAILTVIPFHHGFGMMTTLGYFTCGFRVVLMHTFEEKLFLQSLQDYKVESTLLVPTLMAFLAKSALVEKYDLSHLKEIASGGAPLSKEIGEMVKKRFKLNFVRQGYGLTETTSAVLITPKGDAKPGSTGKIVPFHAVKVVDPTTGKILGPNEPGELYFKGPMIMKGYYNNEEATKAIIDNDGWLRSGDIAYYDNDGHFYIVDRLKSLIKYKGYQVAPAEIEGILLQHPYIVDAGVTGIPDEAAGELPAAGVVVQTGKYLNEQIVQDYVASQVSTAKWLRGGVKFLDEIPKGSTGKIDRKVLRQMFEKHTNG
# modifications: Mutant luciferase
# Tests used:
# [1] = Robotic quantitative screen of E. coli lysates: enzyme stability (tau) at elevated temperature; format: physicochemical; settings: relative value; Control is Luc85-4F12 at 65° C. (=1)
# Protocol: Two white assay plates (Labsystems #9502887) are obtained from the plate feeder and placed in the pipetter. The incubation plate from the shaker is placed in the pipetter, and the lid removed and placed on the nearby locator. Two daughter plates are made using the pipetting procedure (see “Create Pair of Daughter Plates from Incubation Plate”). Afterwards, the lid is replaced on the parent plate, and the plate is placed in a high temperature incubator. [ranging from 31° C. to about 65° C. depending on the clone.]
# To begin the second set of measurements, the plate from the high temperature incubator is placed in the shaker to mix.
# In the final set of measurements, the plate from the high temperature incubator is again placed in the shaker to mix.
# (§1) The following criteria were used for screening purposes. The temperature chosen for the enzyme stability parameter was such that the parent enzyme would decay 100 to 1000 fold over 10 hours (see Table 1). Criteria 1 is achieved manually; data for criteria 2-6 is generated by robotic analysis. For all criteria, the maximum value as described is selected. • 1. In vivo screen. The brightest clones are selected at a given temperature. • 2. Expression/specific activity. The value for normalized luminescence is calculated as the ratio of luminescence to optical density. The value is reported as the ratio with the reference value. • 3. Enzyme stability. Measurements of normalized luminescence of the incubated samples (3 taken over about 15 hours) are fitted to In(L)=In(L0)−(t/τ), where L is normalized luminescence and t is time. τ is a measure of the enzyme stability. The value is reported as the ratio with the reference value, and the correlation coefficients are calculated. • 4. Substrate binding. Measurements of normalized luminescence with 1X and 0.02X are taken at the initial reading set, and 1X and 0.06X are taken at the 5 hour set. The ratio of the 0.02X:1X and 0.06X:1X gives the relative luminescence at 0.02X and 0.06X concentrations. These values, along with the relative luminescence at 1X (i.e., 1), are fitted to a Lineweaver-Burk plot to yield the Km:app,total for the substrates ATP, luciferin, and CoA. The values are reported as the inverse ratio with the reference value, and the correlation coefficients are calculated. • 5. Signal stability. The luminescence of the initial IX luminescent reactions are re-measured 3 additional times over about 15 hours. These values are fitted to In(L)=In(L0)−(t/τ) and the integral over t (15 hours) is calculated. Signal stability is then calculated as S=(1−int(L)/L0t)^2. The values are reported as the inverse ratio with the reference value, and the correlation coefficients are calculated. • 6. Composite fitness. The values of criteria 2 through 5 are combined into a single composite value of fitness (or commercial utility). This value is based on a judgment of the relative importance of the other criteria. This judgment is given below:
# Calculate enzyme stability (τ): For each sample, use linear regression to fit In(L1x)=In(L0)−(t/τ) using the three luminescence measurements with 1X substrate concentrations (Plates 1, 5, 8). Also calculate the regression coefficient.
# Calculate the reference-normalized values: For the criteria parameter of each sample, a reference-normalized value is determined by calculating the ratio or inverse ratio with the respective reference value. The reference-normalized values are Li/Lir, τ/τr, Kmr/Km:app,total, and Sr/S, where reference values are calculated from the equations of the appropriate reference surface.
# “Enzyme stability” was determined by the rate of activity loss from cell lysates over 10 hours. In successive rounds of evolution the incubation temperature of the lysates was increased.
# Robotic Automation: Robotic automation was used in the quantitative screens to accurately perform the large number of required quantitative assays on the cultured cells. […]
# [2] = Robotic quantitative screen of E. coli lysates: luminescence activity (Li), expression/specific activity; format: biochemical; settings: relative value; Control is Luc85-4F12 at 65° C. (=1)
# Protocol: A plate containing cells is retrieved from the carousel and placed on the shaker for 3-5 minutes to fully mix the cells. The cells tend to settle from solution upon standing.
# To measure Optical Density (O.D.), the plate is moved from the shaker to the locator near the luminometer; the lid is removed and the plate placed into the luminometer. The O.D. is measured using a 620 nm filter.
# To prepare a cell lysate, the plate of cells is first retrieved from the refrigerator and mixed on the shaker to resuspend the cells. A new plate from the carousel without a lid is placed in the reagent dispenser and 20 μl of Buffer A is added to each well. This is placed in the pipetting station.
# The plate is then moved to the reagent dispenser to add 175 μl of Buffer B, and then mixed on the shaker for about 15 minutes or more. The combination of the freeze/thaw and Buffer B will cause the cells to lyse.
# One daughter plate is placed in the luminometer and the 1X assay method is used. After the assay, the plate is placed in the ambient incubator, and the second daughter plate is placed in the luminometer. For the second plate, the 0.02X assay method is used. This plate is discarded, and the first plate is returned from the incubator to the luminometer. The repeat assay method is used (i.e., no reagent is injected). Afterwards, the plate is again returned to the ambient incubator.
# 1X Assay reagent: 5 μM Luciferin; 175 μM ATP; 20 mM Tricine, pH 8.0; 0.1 mM EDTA
# as §1
# Normalize luminescence data: For each measurement of luminescence in the eight daughter plates, the normalized luminescence is calculated by dividing the relative light units by the optical density of the original plate. […]
molecule,measurement,setting,value
B1,Enzyme stability (tau),[1],1.1154
same,Luminescence (Li),[2],1.4743

# Reference: patent US8030017B2, “Thermostable luciferases and methods of production” (Promega Corporation, priority 1997, dated 2011)
